Assay results taken from IntAct's records for PubMed 22918830.

B1: Histone deacetylase 3 (Homo sapiens), O15379 (parent)
chain: MAKTVAYFYDPDVGNFHYGAGHPMKPHRLALTHSLVLHYGLYKKMIVFKPYQASQHDMCRFHSEDYIDFLQRVSPTNMQGFTKSLNAFNVGDDCPVFPGLFEFCSRYTGASLQGATQLNNKICDIAINWAGGLHHAKKFEASGFCYVNDIVIGILELLKYHPRVLYIDIDIHHGDGVQEAFYLTDRVMTVSFHKYGNYFFPGTGDMYEVGAESGRYYCLNVPLRDGIDDQSYKHLFQPVINQVVDFYQPTCIVLQCGADSLGCDRLGCFNLSIRGHGECVEYVKSFNIPLLVLGGGGYTVRNVARCWTYETSLLVEEAISEELPYSEYFEYFAPDFTLHPDVSTRIENQNSRQYLDQIRQTIFENLKMLNHAPSVQIHDVPADLLTYDRTDEADAEERGPEENYSRPEAPNEFYDGDHDNDKESDVEI

Variants of: B1
Conditions: with hdac1_human HDAC1, Q13547
Chain of hdac1_human HDAC1, Q13547 (Q13547 whole entry): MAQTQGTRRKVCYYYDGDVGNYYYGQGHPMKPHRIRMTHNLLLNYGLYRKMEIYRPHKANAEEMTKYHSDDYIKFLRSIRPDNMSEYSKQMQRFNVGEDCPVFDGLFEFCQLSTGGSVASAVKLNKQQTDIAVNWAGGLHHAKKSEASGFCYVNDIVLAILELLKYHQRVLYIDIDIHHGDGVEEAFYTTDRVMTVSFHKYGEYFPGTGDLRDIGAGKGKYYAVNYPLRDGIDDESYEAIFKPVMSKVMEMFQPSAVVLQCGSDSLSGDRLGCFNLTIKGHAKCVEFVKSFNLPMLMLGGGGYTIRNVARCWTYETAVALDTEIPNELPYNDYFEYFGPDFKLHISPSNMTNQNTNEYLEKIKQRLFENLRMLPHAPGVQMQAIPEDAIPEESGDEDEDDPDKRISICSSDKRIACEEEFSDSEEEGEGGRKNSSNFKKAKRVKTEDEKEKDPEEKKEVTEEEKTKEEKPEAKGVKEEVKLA

effect of a mutation on the interaction | Variant
with no effect | H134Q
